From publication PMC9463536 (The Journal of Biological Chemistry, 2022)

B1: COP-2 (CpE Obstructing Protein 2), synthetic antigen-binding fragment (Fab, V domains shown)
VH: EVQLVESGGGLVQPGGSLRLSCAASGFNFSSSSIHWVRQAPGKGLEWVASISSYSGYTSYADSVKGRFTISADTSKNTAYLQMNSLRAEDTAVYYCARYWSWYNSSHYIYSALDYWGQGTLVTVSS
VL: DIQMTQSPSSLSASVGDRVTITCRASQSVSSAVAWYQQKPGKAPKLLIYSASSLYSGVPSRFSGSRSGTDFTLTISSLQPEDFATYYCQQSYEWAPVTFGQGTKVEIK
notes: also called sFab; source: E. coli BL21-Gold, purified (MabSelect SuRe, Resource S)
B2: COP-3 (CpE Obstructing Protein 3), synthetic antigen-binding fragment (Fab, V domains shown)
VH: EVQLVESGGGLVQPGGSLRLSCAASGFNFYSSSIHWVRQAPGKGLEWVAYISSYSGYTYYADSVKGRFTISADTSKNTAYLQMNSLRAEDTAVYYCARGYGYFDYNFSVGYALDYWGQGTLVTVSS
VL: DIQMTQSPSSLSASVGDRVTITCRASQSVSSAVAWYQQKPGKAPKLLIYSASSLYSGVPSRFSGSRSGTDFTLTISSLQPEDFATYYCQQSHPWYYPITFGQGTKVEIK
notes: as for B1

Biological target: biotinylated claudin-4–cCpE^1 complex (Homo sapiens claudin-4; Clostridium …, UniProt O14493;P01558, biotin (NHS-PEG4-biotin; sites not stated))
Test: BLI
Settings: both partners purified

biotinylated claudin-4–cCpE^1 complex, sequence (O14493 whole entry, chain 1 of 2): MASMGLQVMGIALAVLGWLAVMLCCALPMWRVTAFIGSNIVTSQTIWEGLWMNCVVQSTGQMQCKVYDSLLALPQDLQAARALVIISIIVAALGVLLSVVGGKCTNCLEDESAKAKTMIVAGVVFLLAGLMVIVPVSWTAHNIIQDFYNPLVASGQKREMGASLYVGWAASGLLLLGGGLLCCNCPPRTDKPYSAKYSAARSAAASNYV
biotinylated claudin-4–cCpE^1 complex, sequence (P01558 197-319, chain 2 of 2): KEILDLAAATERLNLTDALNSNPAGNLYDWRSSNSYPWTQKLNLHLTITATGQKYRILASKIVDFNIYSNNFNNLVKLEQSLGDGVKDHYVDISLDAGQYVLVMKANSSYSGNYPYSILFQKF

Row | Binder | Kd | koff | kon
1 | B1 | 161.3 ± 0.6 nM | 0.0012 s⁻¹ | 7700 M⁻¹ s⁻¹
2 | B2 | 200 ± 5.5 nM | 0.0039 s⁻¹ | 19000 M⁻¹ s⁻¹
